The values below come from US20180037644A1 (Pfizer, published 2018).

Numbering of substitutions follows the chain as printed.

First the molecules themselves.
T1: human IL-33 (mm2) (human, UniProt O95760 112-270)
T1 construct: Variant in which all four cysteine residues are serine; the entry carries an N-terminal Met and a C-terminal His6; Biotinylated in some assays; also called hIL-33 (mm2); huIL-33 (mm2)
T1 chain: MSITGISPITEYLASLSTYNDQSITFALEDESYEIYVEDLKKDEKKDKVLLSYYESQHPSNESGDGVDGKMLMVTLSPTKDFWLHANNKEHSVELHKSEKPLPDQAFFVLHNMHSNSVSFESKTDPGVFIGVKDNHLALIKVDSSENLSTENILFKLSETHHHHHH

T2: cynomolgus monkey IL-33 (cys mut) (cynomolgus monkey)
T2 chain: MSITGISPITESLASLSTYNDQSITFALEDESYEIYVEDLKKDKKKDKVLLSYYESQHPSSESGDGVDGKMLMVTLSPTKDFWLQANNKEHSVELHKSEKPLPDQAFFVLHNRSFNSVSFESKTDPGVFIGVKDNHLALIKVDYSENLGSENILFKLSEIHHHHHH

B1: 9B3-563 (antibody, human IgG1, kappa, V domains shown)
VH: EVQLVETGGGLVQPGRSLKLSCVASGFTFSNYWMYWIRQAPGMGLEWVSSINNDGGNTYYLDSVKGRFTISRNNAENTVYLQMNSLRSEDTATYYCAKGHYYYSSYSFAYWGQGTLVTVSS
VL: DIQMTQSPSVLSASVGDRVTLSCKASHNINKHLDWYQQKVGEAPKLLIYFTNNLQTGIPSRFSGSGSGTDYTLTISSLQPEDVATYFCFQYNSGWTFGQGTKVEIKR
B2: 9B3-2A (antibody, human IgG1, kappa, V domains shown)
VH: B1 VH with Y102S, A109G
VL: B1 VL
B3: 9B3-1 (antibody, human IgG1, kappa, V domains shown)
VH: B1 VH with F108L, A109G
VL: B1 VL
B4: 9B3-5 (antibody, human IgG1, kappa, V domains shown)
VH: B1 VH with Y102S, S104T, A109G
VL: B1 VL
B5: 9B3-3 (antibody, human IgG1, kappa, V domains shown)
VH: B1 VH with Y102S, F108I, A109D
VL: B1 VL
B6: 9B3-2B (antibody, human IgG1, kappa, V domains shown)
VH: B1 VH with A97V, Y102S, F108I, A109D
VL: B1 VL
B7: 9B3-7 (antibody, human IgG1, kappa, V domains shown)
VH: B1 VH with H100R
VL: B1 VL
B8: 9B3-13 (antibody, human IgG1, kappa, V domains shown)
VH: B1 VH with K98R, S104N, Y110H
VL: B1 VL
B9: IL33-153 (antibody, human IgG1, kappa, V domains shown)
VH: EVQLVESGGGLVQPGGSLRLSCAASGFTFSSYWMYWVRQAPGKGLEWVASITPNAGEDYYPDSVKGRFTISRDNAKNSLYLQMNSLRAEDTAVYYCARGHYYYTSYSLGYWGQGTLVTVSS
VL: DIQMTQSPSSLSASVGDRVTITCKASQNINKHLDWYQQKPGKAPKLLIYFTNNLQTGVPSRFSGSGSGTDFTLTISSLQPEDFATYYCFQYNQGWTFGGGTKVEIKR
B10: IL33-155 (antibody, human IgG1, kappa, V domains shown)
VH: B9 VH with S50A, A55G
VL: B9 VL
B11: IL33-169 (antibody, human IgG1, kappa, V domains shown)
VH: B9 VH with S50A, A55G
VL: B9 VL with Q93N
B12: IL33-157 (antibody, human IgG1, kappa, V domains shown)
VH: B9 VH with S50A
VL: B9 VL
B13: IL33-175 (antibody, human IgG1, kappa, V domains shown)
VH: B9 VH with S50A, D58T, D62E
VL: B9 VL with Q93N
B14: IL33-168 (antibody, human IgG1, kappa, V domains shown)
VH: B9 VH with D62E
VL: B9 VL with Q93N
B15: IL33-188 (antibody, human IgG1, kappa, V domains shown)
VH: B9 VH with S50A, D58T, D62E
VL: B9 VL
B16: IL33-186 (antibody, human IgG1, kappa, V domains shown)
VH: B9 VH with S50A, A55G, D58T, D62E
VL: B9 VL
B17: IL33-154 (antibody, human IgG1, kappa, V domains shown)
VH: B9 VH with D62E
VL: B9 VL
B18: IL33-156 (antibody, human IgG1, kappa, V domains shown)
VH: B9 VH with S50A, A55G, D62E
VL: B9 VL
B19: IL33-187 (antibody, human IgG1, kappa, V domains shown)
VH: B9 VH with S50A, D58T
VL: B9 VL
B20: IL33-170 (antibody, human IgG1, kappa, V domains shown)
VH: B9 VH with S50A, A55G, D62E
VL: B9 VL with Q93N
B21: IL33-172 (antibody, human IgG1, kappa, V domains shown)
VH: B9 VH with S50A, D62E
VL: B9 VL with Q93N
B22: IL33-171 (antibody, human IgG1, kappa, V domains shown)
VH: B9 VH with S50A
VL: B9 VL with Q93N
B23: IL33-158 (antibody, human IgG1, kappa)
heavy: EVQLVESGGGLVQPGGSLRLSCAASGFTFSSYWMYWVRQAPGKGLEWVAAITPNAGEDYYPESVKGRFTISRDNAKNSLYLQMNSLRAEDTAVYYCARGHYYYTSYSLGYWGQGTLVTVSSASTKGPSVFPLAPSSKSTSGGTAALGCLVKDYFPEPVTVSWNSGALTSGVHTFPAVLQSSGLYSLSSVVTVPSSSLGTQTYICNVNHKPSNTKVDKKVEPKSCDKTHTCPPCPAPEAAGAPSVFLFPPKPKDTLMISRTPEVTCVVVDVSHEDPEVKFNWYVDGVEVHNAKTKPREEQYNSTYRVVSVLTVLHQDWLNGKEYKCKVSNKALPAPIEKTISKAKGQPREPQVYTLPPSREEMTKNQVSLTCLVKGFYPSDIAVEWESNGQPENNYKTTPPVLDSDGSFFLYSKLTVDKSRWQQGNVFSCSVMHEALHNHYTQKSLSLSPGK
light: DIQMTQSPSSLSASVGDRVTITCKASQNINKHLDWYQQKPGKAPKLLIYFTNNLQTGVPSRFSGSGSGTDFTLTISSLQPEDFATYYCFQYNQGWTFGGGTKVEIKRTVAAPSVFIFPPSDEQLKSGTASVVCLLNNFYPREAKVQWKVDNALQSGNSQESVTEQDSKDSTYSLSSTLTLSKADYEKHKVYACEVTHQGLSSPVTKSFNRGEC
B24: IL33-167 (antibody, human IgG1, kappa)
heavy: B23 heavy with A50S, E62D
light: B23 light with Q93N

The first assay deals with T1, human IL-33 (mm2). Briefly: BIAcore, IgG captured by anti-human Fc, 125 nM IL-33 (mm2). As for the experimental part:
Binding to human and cynomolgus monkey IL-33 was measured by surface plasmon resonance using a BIAcore T200 instrument. An anti-human Fc antibody was immobilized on a CM5 chip, and anti-IL-33 antibodies were captured.
In general terms: Surface plasmon resonance follows binding to a sensor surface in real time, without labels.
What is called koff is a measure of how fast the partners let go of each other. In turn, B1 yielded a koff of 0.00109 s⁻¹.
B2: the koff is 0.000437 s⁻¹.
On the same count and under the same terms, for B3 the value was 0.000569 s⁻¹; for B4, 0.000325 s⁻¹.
With B5, the koff is 0.000424 s⁻¹.
Still for that read-out and setting: for B6 the value was 0.000506 s⁻¹.
On the same count and under the same terms, for B7 the value was 0.000589 s⁻¹.
Turning to B8, the koff came to 0.000326 s⁻¹.

A further assay addresses T1, human IL-33 (mm2). Briefly: cell-based or functional assay.
As for B9, the “IC50, HEK293 ST2 NFkB” value came out at 0.087 nM and the “IC50, whole blood mm2” value amounted to 0.014 nM.
Taken in the same sequence, the figures for B10 were 0.171 nM and 0.025 nM.
Taken in the same sequence, the figures for B11 were 0.071 nM and 0.009 nM.
Taken in the same sequence, the figures for B12 were 0.118 nM and 0.016 nM.
For B13, the “IC50, HEK293 ST2 NFkB” value was determined as 0.059 nM; the “IC50, PBMC mm2” value stood at 0.004 nM; the “IC50, whole blood mm2” value amounted to 0.006 nM.
For the molecule B14, the “IC50, HEK293 ST2 NFkB” value is 0.109 nM and the “IC50, whole blood mm2” value came out at 0.014 nM.
Taken in the same sequence, the figures for B15 were 0.147 nM and 0.017 nM.
Take B16: the “IC50, HEK293 ST2 NFkB” value worked out at 0.109 nM and the “IC50, whole blood mm2” value is 0.012 nM.
In the case of B17, the “IC50, HEK293 ST2 NFkB” value worked out at 0.188 nM; the “IC50, PBMC mm2” value came out at 0.007 nM; the “IC50, whole blood mm2” value is 0.01 nM.
Taken in the same sequence, the figures for B18 were 0.116 nM, 0.004 nM and 0.004 nM.
Turning to B19, the “IC50, HEK293 ST2 NFkB” value was 0.15 nM and the “IC50, whole blood mm2” value stood at 0.006 nM.
Take B20: the “IC50, HEK293 ST2 NFkB” value was found to be 0.176 nM and the “IC50, whole blood mm2” value was 0.005 nM.
Take B21: the “IC50, HEK293 ST2 NFkB” value was 0.201 nM and the “IC50, whole blood mm2” value was 0.012 nM.
As to B22, the “IC50, HEK293 ST2 NFkB” value came to 0.145 nM and the “IC50, whole blood mm2” value was found to be 0.012 nM.
As for B23, the “IC50, HEK293 ST2 NFkB” value came out at 0.131 nM; the “IC50, PBMC mm2” value amounted to 0.004 nM; the “IC50, whole blood mm2” value amounted to 0.007 nM.
Taken in the same sequence, the figures for B24 were 0.049 nM, 0.001 nM and 0.008 nM.

In another assay the target is T2, cynomolgus monkey IL-33 (cys mut). Kind of assay: cell-based or functional assay.
With B9, the “IC50, HEK293 ST2 NFkB cyno IL-33” value amounted to 0.122 nM.
Same read-out and setting: for B10 the value was 0.239 nM.
Same read-out and setting: for B11 the value was 0.176 nM; for B12, 0.161 nM.
For the molecule B13, the “IC50, HEK293 ST2 NFkB cyno IL-33” value is 0.086 nM.
Same read-out and setting: for B14 the value was 0.264 nM.
Turning to B15, the “IC50, HEK293 ST2 NFkB cyno IL-33” value is 0.351 nM.
Consider B16, for which the “IC50, HEK293 ST2 NFkB cyno IL-33” value amounted to 0.144 nM.
On the same count and under the same terms, for B17 the value was 0.133 nM.
Still for that read-out and setting: for B18 the value was 0.087 nM; for B19, 0.282 nM.
On the same count and under the same terms, for B20 the value was 0.218 nM; for B21, 0.222 nM; for B22, 0.216 nM.
Regarding B23, the “IC50, HEK293 ST2 NFkB cyno IL-33” value was 0.125 nM.
Consider B24, for which the “IC50, HEK293 ST2 NFkB cyno IL-33” value turned out to be 0.062 nM.

A further assay has as its target T1, human IL-33 (mm2). Kind of assay: cell-based or functional assay. This is another data set of the same source.
For the molecule B1, the “estimated IC50, HEK293 ST2 NFkB” value is 0.177 nM.
With B2, the “estimated IC50, HEK293 ST2 NFkB” value was 0.056 nM.
On the same count and under the same terms, for B3 the value was 0.039 nM; for B4, 0.106 nM; for B5, 0.048 nM.
Still for that read-out and setting: for B6 the value was 0.048 nM; for B7, 0.069 nM; for B8, 0.175 nM.
